Experimental findings from the supplement of paper PMC7877785 are described below.

The data set in a line: self-splicing fitness, log relative to wild type (ln ratio); higher = more splicing; Tetrahymena group I intron in knt gene, E. coli kanamycin selection, DiMSum; sequences stand for … in CUCUCU…GGAGGGAAAAGUUAUCAGGCAUGCACCUGGUAGCUAGUCUUUAAACCAAUAGAUUGCAUCGGUUUAAAAGGCAAGACCGUCAAAUUGCGGGAAAGGGGUCAACAGCCGUUCAGUACCAAGUCUCAGGGGAAACUUUGAGAUGGCCUUGCAAAGGGUAUGGUAAUAAGCUGACGGACAUGGUCCUAACCACGCAGCCAAGUCCUAAGUCAACAGAUCUUCUGUUGAUAUGGAUGCAGUUCACAGACUAAAUGUCGGUCGGGGAAGAUGUAUUCUUCUCAUAAGAUAUAGUCGGACCUCUCCUUAAUGGGAGCUAGCGGAUGAAGUGAUGCAACACUGGAGCCGCUGGGAACUAAUUUGUAUGCGAAAGUAUAUUGAUUAGUUUUGGAGUACUCGUGGUCG
The essentials: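 Pooled colonies went to amplicon sequencing on an Illumina HiSeq 2500 after six replicate transformations. The plates were LB agar with 100 μg/mL carbenicillin, 50 μM IPTG and 0.2% rhamnose, with or without 25 μg/mL kanamycin, incubated overnight at 37°C or 30°C. The E. coli BL21(DE3) library had all eight P1ex-region intron nucleotides randomised, the intron placed in the knt kanamycin-resistance gene on pET-22b(+). DiMSum fitness is the error-weighted combination of replicate fold changes, kanamycin against none, normalised to wild type.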

± gives the uncertainty stated by the source.

Take AAAUAGCAAUAUUACGUGCA: the “self-splicing fitness (ln)” value was -1.23 ± 0.063 (30 °C) and -0.426 ± 0.095 (37 °C). As for UAGGAGCAAUAUUACGAGUC, the “self-splicing fitness (ln)” value reads like this: (30 °C) -3.68 ± 0.33; (37 °C) -2.78 ± 0.3. Take AAUGAGCAAUAUUACGACGA: the “self-splicing fitness (ln)” value was -2.44 ± 0.34 (30 °C) and -3.22 ± 0.47 (37 °C). Turning to GGAUAGCAAUAUUACGCGCG, the “self-splicing fitness (ln)” value was -1.25 ± 0.13 (30 °C) and 0.793 ± 0.15 (37 °C). Consider CUGAAGCAAUAUUACGUCAU, for which the “self-splicing fitness (ln)” value is -1.03 ± 0.093 (30 °C) and -0.736 ± 0.12 (37 °C).

As to GCCUAGCAAUAUUACGGCUC, the “self-splicing fitness (ln)” value was -1.99 ± 0.15 (30 °C) and -0.272 ± 0.17 (37 °C).

As for AUUGAGCAAUAUUACGUUGG, the “self-splicing fitness (ln)” value is, setting by setting: (30 °C) -3.62 ± 0.36; (37 °C) -0.682 ± 0.17. As to AGGAAGCAAUAUUACGCCUC, the “self-splicing fitness (ln)” value reads like this: (30 °C) -2.44 ± 0.44; (37 °C) -0.418 ± 0.46. The corresponding values for CGUGAGCAAUAUUACGUCCG are -1.95 ± 0.16 and -0.866 ± 0.22. For the sequence UACCAGCAAUAUUACGCGAA, the “self-splicing fitness (ln)” value reads like this: (30 °C) -0.474 ± 0.063; (37 °C) -0.386 ± 0.086. On the same counts, the results for AAAAAGCAAUAUUACGCAGU are -1.99 ± 0.15 and -2.19 ± 0.2. The corresponding values for CGUUAGCAAUAUUACGUUUA are -2.86 ± 0.23 and -2.63 ± 0.18. The corresponding values for ACUUAGCAAUAUUACGUUCA are -0.344 ± 0.19 and -0.694 ± 0.2. For the sequence AACGAGCAAUAUUACGAACU, the “self-splicing fitness (ln)” value was -1.11 ± 0.13 (30 °C) and -1.42 ± 0.16 (37 °C). Consider AGAGAGCAAUAUUACGGGAA, for which the “self-splicing fitness (ln)” value is -4.12 ± 0.35 (30 °C) and -2.62 ± 0.28 (37 °C). Regarding GUCGAGCAAUAUUACGAGUU, the “self-splicing fitness (ln)” value reads like this: (30 °C) -2.66 ± 0.18; (37 °C) -2.52 ± 0.28. GUUAAGCAAUAUUACGAAUC: the “self-splicing fitness (ln)” value by setting is: (30 °C) -1.8 ± 0.29; (37 °C) -0.464 ± 0.17. In the case of CUUGAGCAAUAUUACGCGCG, the “self-splicing fitness (ln)” value reads like this: (30 °C) -3.32 ± 0.29; (37 °C) -1.63 ± 0.25.

Take UAGCAGCAAUAUUACGGCUA: the “self-splicing fitness (ln)” value runs as follows: (30 °C) -2.89 ± 0.39; (37 °C) -1.33 ± 0.28. Consider GAUCAGCAAUAUUACGCUAU, for which the “self-splicing fitness (ln)” value reads like this: (30 °C) -0.967 ± 0.24; (37 °C) -0.471 ± 0.15.

In the case of GUAAAGCAAUAUUACGGCCC, the “self-splicing fitness (ln)” value runs as follows: (30 °C) 0.25 ± 0.16; (37 °C) 0.443 ± 0.24. In the case of GUACAGCAAUAUUACGGCCU, the “self-splicing fitness (ln)” value by setting is: (30 °C) -1.84 ± 0.17; (37 °C) 0.0868 ± 0.17. Regarding UCUCAGCAAUAUUACGCUCC, the “self-splicing fitness (ln)” value (30 °C) is -1.02 ± 0.39. Take CAGUAGCAAUAUUACGAUUA: the “self-splicing fitness (ln)” value runs as follows: (30 °C) -2.16 ± 0.13; (37 °C) -1.73 ± 0.11. In the case of AUAGAGCAAUAUUACGCACC, the “self-splicing fitness (ln)” value by setting is: (30 °C) -1.1 ± 0.35; (37 °C) -1.41 ± 0.44. With GUGCAGCAAUAUUACGACCU, the “self-splicing fitness (ln)” value is, setting by setting: (30 °C) -1.51 ± 0.27; (37 °C) -0.504 ± 0.24. For CGUGAGCAAUAUUACGGUGA, the “self-splicing fitness (ln)” value (30 °C) is -2.84 ± 0.31 and the “self-splicing fitness (ln)” value (37 °C) is -2.04 ± 0.38. The corresponding values for CUGCAGCAAUAUUACGUACC are -3.22 ± 0.19 and -2.68 ± 0.44.

On to CGACAGCAAUAUUACGCGGC, for which the “self-splicing fitness (ln)” value runs as follows: (30 °C) -3.55 ± 0.16; (37 °C) -2.96 ± 0.26. Take CUCCAGCAAUAUUACGGGUU: the “self-splicing fitness (ln)” value is -3.83 ± 0.2 (30 °C) and -2.91 ± 0.2 (37 °C). The corresponding values for UUAAAGCAAUAUUACGAAGA are -1.19 ± 0.12 and -0.63 ± 0.17. For UGAGAGCAAUAUUACGCCUU, the “self-splicing fitness (ln)” value runs as follows: (30 °C) -3 ± 0.18; (37 °C) -3.73 ± 0.34. With ACUCAGCAAUAUUACGCCCC, the “self-splicing fitness (ln)” value was -1.48 ± 0.12 (30 °C) and 0.148 ± 0.18 (37 °C).

Regarding UUACAGCAAUAUUACGAGAG, the “self-splicing fitness (ln)” value runs as follows: (30 °C) -1.48 ± 0.11; (37 °C) -2.4 ± 0.15. The corresponding values for ACAAAGCAAUAUUACGAUCG are -0.241 ± 0.074 and 0.193 ± 0.095.

CGAGAGCAAUAUUACGGGAC: the “self-splicing fitness (ln)” value by setting is: (30 °C) -3.92 ± 0.18; (37 °C) -1.87 ± 0.16. The corresponding values for GACGAGCAAUAUUACGAUUG are -4.17 ± 0.27 and -1.09 ± 0.13. On the same counts, the results for CGGCAGCAAUAUUACGACGG are -0.297 ± 0.088 and 0.852 ± 0.15. In the case of AUAGAGCAAUAUUACGUAGC, the “self-splicing fitness (ln)” value was -3.16 ± 0.29 (30 °C) and -2.27 ± 0.3 (37 °C).

For UAAAAGCAAUAUUACGAUUU, the “self-splicing fitness (ln)” value is, setting by setting: (30 °C) -1.36 ± 0.11; (37 °C) -0.59 ± 0.11. Take GAACAGCAAUAUUACGGUUC: the “self-splicing fitness (ln)” value is, setting by setting: (30 °C) -3 ± 0.14; (37 °C) -2.93 ± 0.22. ACCUAGCAAUAUUACGCGGG: the “self-splicing fitness (ln)” value (30 °C) is -3.58 ± 0.24. UAGCAGCAAUAUUACGAAAA: the “self-splicing fitness (ln)” value runs as follows: (30 °C) -2.56 ± 0.25; (37 °C) -1.27 ± 0.2. In the case of CGGUAGCAAUAUUACGGUCC, the “self-splicing fitness (ln)” value is, setting by setting: (30 °C) -2.24 ± 0.15; (37 °C) -0.321 ± 0.17. On the same counts, the results for UACUAGCAAUAUUACGAUGG are -0.657 ± 0.12 and -0.406 ± 0.2.

As to ACGUAGCAAUAUUACGGCUC, the “self-splicing fitness (ln)” value is -1.2 ± 0.12 (30 °C) and -0.844 ± 0.15 (37 °C). On the same counts, the results for GGGUAGCAAUAUUACGAGGA are -2.14 ± 0.22 and -2.74 ± 0.3. The corresponding values for CACAAGCAAUAUUACGUGGA are -2.95 ± 0.11 and -2.81 ± 0.13.

Consider GUUAAGCAAUAUUACGAAAU, for which the “self-splicing fitness (ln)” value (30 °C) is -1.41 ± 0.16 and the “self-splicing fitness (ln)” value (37 °C) was -2.16 ± 0.24. As to UCAUAGCAAUAUUACGCUUG, the “self-splicing fitness (ln)” value runs as follows: (30 °C) -1.97 ± 0.15; (37 °C) -2 ± 0.19. As for UACAAGCAAUAUUACGCUGU, the “self-splicing fitness (ln)” value (37 °C) was -1.65 ± 0.28. On to GAACAGCAAUAUUACGUCUU, for which the “self-splicing fitness (ln)” value (30 °C) is -0.598 ± 0.07 and the “self-splicing fitness (ln)” value (37 °C) was 0.229 ± 0.089. The corresponding values for UGCGAGCAAUAUUACGGAUA are -2.36 ± 0.27 and -2.08 ± 0.36.

For GACUAGCAAUAUUACGGGUU, the “self-splicing fitness (ln)” value is -3.92 ± 0.24 (30 °C) and -2.74 ± 0.27 (37 °C). On the same counts, the results for UAUAAGCAAUAUUACGAAAU are -3.45 ± 0.22 and -3.24 ± 0.33. On the same counts, the results for GCAAAGCAAUAUUACGGAUA are -2.49 ± 0.13 and -1.6 ± 0.1. With GCCAAGCAAUAUUACGGAAU, the “self-splicing fitness (ln)” value runs as follows: (30 °C) -1.8 ± 0.15; (37 °C) -0.618 ± 0.15. In the case of GGGGAGCAAUAUUACGCCGG, for the setting “37 °C”, the “self-splicing fitness (ln)” value is -0.928 ± 0.42.

As to GUUCAGCAAUAUUACGAGAU, the “self-splicing fitness (ln)” value reads like this: (30 °C) -2.51 ± 0.16; (37 °C) -0.359 ± 0.12.

For GUCAAGCAAUAUUACGCUUU, the “self-splicing fitness (ln)” value runs as follows: (30 °C) -2.41 ± 0.21; (37 °C) -1.73 ± 0.16. The corresponding values for AACGAGCAAUAUUACGCCGG are -2.42 ± 0.4 and -0.855 ± 0.34. As for CCGAAGCAAUAUUACGGCCC, the “self-splicing fitness (ln)” value was -3.55 ± 0.3 (30 °C) and -1.71 ± 0.38 (37 °C). For the sequence UGAGAGCAAUAUUACGUGCG, the “self-splicing fitness (ln)” value by setting is: (30 °C) -1.95 ± 0.13; (37 °C) -1.42 ± 0.15. For the sequence GCACAGCAAUAUUACGCAUU, the “self-splicing fitness (ln)” value reads like this: (30 °C) -0.442 ± 0.064; (37 °C) 0.276 ± 0.078. With ACACAGCAAUAUUACGGGAG, the “self-splicing fitness (ln)” value reads like this: (30 °C) -2.04 ± 0.073; (37 °C) -2.15 ± 0.084. For UAUAAGCAAUAUUACGCAGG, the “self-splicing fitness (ln)” value runs as follows: (30 °C) -2.31 ± 0.13; (37 °C) -0.616 ± 0.11. On the same counts, the results for CAUAAGCAAUAUUACGCAAU are -3.2 ± 0.25 and -2.59 ± 0.36. For the sequence UAUCAGCAAUAUUACGAUGC, the “self-splicing fitness (ln)” value is -3.83 ± 0.37 (30 °C) and -1.82 ± 0.22 (37 °C). On the same counts, the results for CCCAAGCAAUAUUACGAGUC are -3.23 ± 0.16 and -3.28 ± 0.24. In the case of UGGUAGCAAUAUUACGGAGC, under “37 °C”, the “self-splicing fitness (ln)” value is -0.765 ± 0.31.

Regarding UAACAGCAAUAUUACGUCCC, the “self-splicing fitness (ln)” value is -2.98 ± 0.34 (30 °C) and -1.38 ± 0.27 (37 °C). With UUUCAGCAAUAUUACGGCGC, the “self-splicing fitness (ln)” value by setting is: (30 °C) -1.11 ± 0.11; (37 °C) -1.58 ± 0.16. The corresponding values for GGAGAGCAAUAUUACGCUUG are -3.1 ± 0.16 and -2.01 ± 0.21. On to UGCUAGCAAUAUUACGGUCU, for which the “self-splicing fitness (ln)” value (30 °C) was -0.539 ± 0.084 and the “self-splicing fitness (ln)” value (37 °C) was -0.14 ± 0.08.

Consider ACCUAGCAAUAUUACGAGUU, for which the “self-splicing fitness (ln)” value was -2.28 ± 0.087 (30 °C) and -1.24 ± 0.1 (37 °C). With CGCUAGCAAUAUUACGCUCU, the “self-splicing fitness (ln)” value (30 °C) was -1.58 ± 0.1 and the “self-splicing fitness (ln)” value (37 °C) was -0.837 ± 0.099.
